The text below walks through data of PMC3110666 (Nature cell biology, 2011).

The data set concerns the molecule itself. The data set is described as follows: cross-linking.

By stoichiometry N is commonly meant a count of units in the complex or per binding partner.

B1: G6PD of MEF cells (enzyme, mouse (endogenous in MEF), UniProt Q00612 1-515, looked up)
chain: MAEQVALSRTQVCGILREELYQGDAFHQADTHIFIIMGASGDLAKKKIYPTIWWLFRDGLLPEDTFIVGYARSRLTVDDIRKQSEPFFKATPEERPKLEEFFARNSYVAGQYDDAASYKHLNSHMNALHQGMQANRLFYLALPPTVYEAVTKNIQETCMSQTGWNRIIVEKPFGRDLQSSNQLSNHISSLFREDQIYRIDHYLGKEMVQNLMVLRFANRIFGPIWNRDNIACVILTFKEPFGTEGRGGYFDEFGIIRDVMQNHLLQMLCLVAMEKPATTGSDDVRDEKVKVLKCISEVETDNVVLGQYVGNPNGEGEAANGYLDDPTVPHGSTTATFAAAVLYVENERWDGVPFILRCGKALNERKAEVRLQFRDVAGDIFHQQCKRNELVIRVQPNEAVYTKMMTKKPGMFFNPEESELDLTYGNRYKNVKLPDAYERLILDVFCGSQMHFVRSDELREAWRIFTPLLHKIDREKPQPIPYVYGSRGPTEADELMKRVGFQYEGTYKWVNPHKL
Consider B1, for which the “stoichiometry N” value worked out at 2.
